From paper PMC8448823, “Structural basis of RNA polymerase inhibition by viral and host factors” (Nature Communications, 2021)

Columns and labels:
Conditions in all cases: both partners purified
[1] = target: T1, Rpo1′ subunit of Sulfolobus acidocaldarius RNA polymerase (Sulfolobus acidocaldarius, UniProt P11512 1-880); experiment: cryo-EM structure; RNAP incubated and cross-linked (BS3, 65 °C) in presence of a 20 molar fold excess of TFS4; map at 2.61 Å
T1 construct: Rpo1′, subunit of the Sulfolobus acidocaldarius RNA polymerase (clamp, rim helices, bridge helix); Stood within the whole 13-subunit RNAP; source: part of the RNAP purified from Saci strain MW001
T1 sequence (P11512 whole entry): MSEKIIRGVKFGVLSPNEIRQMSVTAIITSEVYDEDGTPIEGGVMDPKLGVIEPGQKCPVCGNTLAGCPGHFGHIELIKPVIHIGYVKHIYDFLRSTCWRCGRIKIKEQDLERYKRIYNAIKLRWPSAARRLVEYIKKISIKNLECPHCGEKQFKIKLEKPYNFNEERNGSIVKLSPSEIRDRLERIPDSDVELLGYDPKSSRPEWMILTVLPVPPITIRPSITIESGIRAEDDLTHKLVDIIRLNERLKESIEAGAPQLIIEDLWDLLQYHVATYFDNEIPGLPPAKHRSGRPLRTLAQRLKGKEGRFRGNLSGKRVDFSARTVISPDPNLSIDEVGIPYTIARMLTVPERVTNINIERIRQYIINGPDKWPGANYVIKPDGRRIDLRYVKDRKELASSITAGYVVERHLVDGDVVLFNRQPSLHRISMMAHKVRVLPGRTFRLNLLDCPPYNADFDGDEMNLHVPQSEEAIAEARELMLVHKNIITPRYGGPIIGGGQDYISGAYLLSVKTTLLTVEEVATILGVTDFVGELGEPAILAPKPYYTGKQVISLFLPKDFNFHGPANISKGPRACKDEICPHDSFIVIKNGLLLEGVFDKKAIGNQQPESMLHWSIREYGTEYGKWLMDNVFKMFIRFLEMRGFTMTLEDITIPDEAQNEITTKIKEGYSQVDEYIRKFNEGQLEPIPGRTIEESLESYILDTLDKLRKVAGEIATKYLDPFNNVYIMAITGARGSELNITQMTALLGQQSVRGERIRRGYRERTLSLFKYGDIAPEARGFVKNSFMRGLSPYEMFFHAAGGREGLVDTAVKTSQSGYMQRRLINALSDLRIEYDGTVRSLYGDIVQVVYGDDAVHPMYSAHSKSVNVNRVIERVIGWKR

[2] = target: T2, Rpo2 subunit of Sulfolobus acidocaldarius RNA polymerase (Sulfolobus acidocaldarius, UniProt P11513 1-1126); experiment: as above
T2 construct: Rpo2, subunit of the Sulfolobus acidocaldarius RNA polymerase (protrusion and lobe); Stood within the whole 13-subunit RNAP; source: part of the RNAP purified from Saci strain MW001
T2 sequence (P11513 whole entry): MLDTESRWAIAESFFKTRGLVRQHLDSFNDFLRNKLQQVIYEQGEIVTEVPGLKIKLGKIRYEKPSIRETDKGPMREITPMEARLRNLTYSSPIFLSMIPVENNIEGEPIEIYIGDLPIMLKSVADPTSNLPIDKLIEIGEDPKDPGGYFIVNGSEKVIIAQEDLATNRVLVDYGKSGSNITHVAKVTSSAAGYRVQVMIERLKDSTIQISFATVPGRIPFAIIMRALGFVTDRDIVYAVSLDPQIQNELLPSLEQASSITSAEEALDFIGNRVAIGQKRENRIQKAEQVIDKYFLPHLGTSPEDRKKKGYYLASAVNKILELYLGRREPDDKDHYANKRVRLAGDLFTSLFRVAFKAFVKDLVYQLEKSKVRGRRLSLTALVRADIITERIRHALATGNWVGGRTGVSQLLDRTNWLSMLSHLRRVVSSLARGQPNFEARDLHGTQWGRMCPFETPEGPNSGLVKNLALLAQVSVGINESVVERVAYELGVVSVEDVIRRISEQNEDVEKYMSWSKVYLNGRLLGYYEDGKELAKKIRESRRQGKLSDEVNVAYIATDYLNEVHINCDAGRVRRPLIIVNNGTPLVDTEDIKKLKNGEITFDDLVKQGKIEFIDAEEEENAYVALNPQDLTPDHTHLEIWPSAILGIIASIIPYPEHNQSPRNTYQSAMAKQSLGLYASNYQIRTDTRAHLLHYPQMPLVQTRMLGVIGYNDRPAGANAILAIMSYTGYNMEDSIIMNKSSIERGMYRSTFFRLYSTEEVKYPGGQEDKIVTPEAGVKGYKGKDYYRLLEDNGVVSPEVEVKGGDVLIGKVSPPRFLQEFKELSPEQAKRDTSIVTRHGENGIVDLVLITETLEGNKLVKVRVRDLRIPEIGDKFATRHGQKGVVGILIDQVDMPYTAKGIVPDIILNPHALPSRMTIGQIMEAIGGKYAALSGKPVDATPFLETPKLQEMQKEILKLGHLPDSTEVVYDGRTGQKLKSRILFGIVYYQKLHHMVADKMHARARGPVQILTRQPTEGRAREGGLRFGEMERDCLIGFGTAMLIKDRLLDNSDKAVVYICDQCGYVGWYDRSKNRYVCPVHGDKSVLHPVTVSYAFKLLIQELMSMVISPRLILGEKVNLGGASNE

[3] = target: T3, Rpo1″ subunit of Sulfolobus acidocaldarius RNA polymerase (Sulfolobus acidocaldarius, UniProt P11514 1-393); experiment: as above
T3 construct: Rpo1″, subunit of the Sulfolobus acidocaldarius RNA polymerase (upper jaw, trigger loop); Stood within the whole 13-subunit RNAP; source: part of the RNAP purified from Saci strain MW001
T3 sequence (P11514 whole entry): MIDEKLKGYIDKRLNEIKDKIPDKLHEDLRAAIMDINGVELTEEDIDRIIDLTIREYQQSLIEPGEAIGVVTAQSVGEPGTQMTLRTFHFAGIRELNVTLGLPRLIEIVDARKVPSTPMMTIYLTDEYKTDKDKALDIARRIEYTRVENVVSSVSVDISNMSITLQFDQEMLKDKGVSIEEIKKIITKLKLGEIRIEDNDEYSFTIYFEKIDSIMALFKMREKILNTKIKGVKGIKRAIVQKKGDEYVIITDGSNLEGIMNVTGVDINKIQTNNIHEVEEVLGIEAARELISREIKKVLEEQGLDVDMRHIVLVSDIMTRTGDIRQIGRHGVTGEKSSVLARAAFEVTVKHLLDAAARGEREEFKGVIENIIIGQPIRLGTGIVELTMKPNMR

[4] = target: T1, Rpo1′ subunit of Sulfolobus …; experiment: cryo-EM structure; apo-RNAP cross-linked with 2 mM BS3 for 5 min at 65 °C; 20 mM Hepes pH 7.0, 200 mM NaCl, 5 mM MgCl2; map at 2.88 Å
[5] = target: T1, Rpo1′ subunit of Sulfolobus …; experiment: cryo-EM structure; RNAP incubated with a 10-fold excess of RIP for 5 min at 65 °C, then cross-linked with 2 mM BS3; 20 mM Hepes pH 7.0, 200 mM NaCl, 5 mM MgCl2; map at 3.27 Å
[6] = target: T2, Rpo2 subunit of Sulfolobus …; experiment: as above

B1: Sso TFS4 (natural protein)
chain: MRFCPKCGSFLKVKGNKMVCSKCGYSDHDVEKVILKENVAHENDKTIIADGETIEGRVAISLCPRCGSVRAILLNKKKRLYRCMTCNFVYNI
notes: TFS4, paralogue of the transcript cleavage factor TFS; two zinc-ribbon domains ZR^N and ZR^C joined by a linker; expressed without tag; source: E. coli BL21 pLysS, purified (heat step 65 °C, HiTrap Q, Superose 12)
B1: binds [1]; binds [2]; binds [3].

B2: Rpo8 subunit of Sulfolobus acidocaldarius RNA polymerase (natural protein)
chain: MMQGTCKISSIEKGALKNLYVVKMDCDNDLKIEFDITKELSIFSKDEEVTFIISREKPEYSEKDFCAHGYLFLERQQEDGSFIDEISLYGLIVKILSKNGLINSKLFKMMDHVYYCVKKKA
notes: Rpo8, subunit of the Sulfolobus acidocaldarius RNA polymerase; holds the conserved GGLLM motif; Stood within the whole 13-subunit RNAP; source: part of the RNAP purified from Saci strain MW001
B2: binds [4].

B3: ATV RIP (RNAP Inhibitory Protein, ORF145) of Acidianus two-tailed virus (natural protein, Acidianus two-tailed virus (ATV))
chain: MKNMLHPQKYETHVLDDLMEFYEGVIGYPEIDLRLAGEEAWLKGVNPELAEAVKKIIKTIRRYLEGSPYDGSEKPIPRYIIAEIFSQIAPEVQLLVNALDTEGKYGFLKHIKKLNLNSLAMLSKNYNENDKLWKELENEGYVYLE
notes: RIP (ORF145) of Acidianus two-tailed virus (ATV); 145 aa printed; residues 10–127 resolved in the RNAP–RIP structure; source: E. coli BL21 pLyS, purified (heat step 60 °C, Ni-column, TEV cleavage, second Ni-column); not shown: 6×His, N-terminal, cleaved
B3: binds [5]; binds [6].
